Consider two compounds from publication PMC12358834, “Structural basis for anaerobic alkane activation by a multisubunit glycyl radical enzyme” (Proceedings of the National Academy of Sciences of the …, 2025).

For test [1], the target named is (1-methylalkyl)succinate synthase catalytic α-subunit (MASSα), protein product of masD (Azoarcus sp. strain HxN1). Kind of test: cryo-EM structure; single-particle cryo-EM of the co-expressed, purified MASS complex (SEC fractions with dimeric MASSα), grids prepared anaerobically, 0.8 mg/mL, fumarate and DTT bound; 2.8 Å map (a first data set gave 7 Å).
In test [2] the target is T1, MASS; (1-methylalkyl)succinate synthase; MASSα2βγ2δ complex (Azoarcus sp. HxN1, UniProt A9J4K4).
T1 construct: gene masD; full-length subunits co-expressed in E. coli NiCo21(DE3); N-terminal His tag on MASSα; asymmetric alpha2-beta-gamma2-delta complex; [4Fe-4S] in beta and gamma, single Fe in delta; with (1-methylalkyl)succinate synthase beta subunit; (1-methylalkyl)succinate synthase gamma subunit; (1-methylalkyl)succinate synthase delta subunit (rubredoxin-like)
T1 sequence (A9J4K4 1-839): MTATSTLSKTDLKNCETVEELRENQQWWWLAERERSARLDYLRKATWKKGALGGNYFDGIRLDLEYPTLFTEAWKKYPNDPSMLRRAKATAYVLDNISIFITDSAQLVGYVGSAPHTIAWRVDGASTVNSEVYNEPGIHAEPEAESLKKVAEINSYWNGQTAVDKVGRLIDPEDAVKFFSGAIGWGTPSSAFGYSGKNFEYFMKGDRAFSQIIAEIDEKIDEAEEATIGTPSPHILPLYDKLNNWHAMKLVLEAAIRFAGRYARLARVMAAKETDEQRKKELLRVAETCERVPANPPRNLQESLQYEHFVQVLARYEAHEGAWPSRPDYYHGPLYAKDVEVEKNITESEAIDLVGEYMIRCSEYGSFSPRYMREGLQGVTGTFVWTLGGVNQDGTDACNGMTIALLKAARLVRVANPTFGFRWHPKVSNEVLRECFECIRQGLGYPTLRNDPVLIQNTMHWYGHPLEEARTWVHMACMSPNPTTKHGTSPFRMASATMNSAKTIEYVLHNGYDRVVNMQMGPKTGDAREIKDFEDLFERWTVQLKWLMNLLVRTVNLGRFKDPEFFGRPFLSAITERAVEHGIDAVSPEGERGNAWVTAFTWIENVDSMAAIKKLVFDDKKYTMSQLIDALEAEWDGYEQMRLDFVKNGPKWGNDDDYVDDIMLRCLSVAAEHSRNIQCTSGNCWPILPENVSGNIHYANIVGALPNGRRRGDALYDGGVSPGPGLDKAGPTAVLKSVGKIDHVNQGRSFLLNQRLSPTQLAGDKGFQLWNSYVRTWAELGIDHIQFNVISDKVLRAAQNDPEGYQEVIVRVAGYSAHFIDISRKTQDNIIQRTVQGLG
T1 sequence (A9J4K2 1-61 partner): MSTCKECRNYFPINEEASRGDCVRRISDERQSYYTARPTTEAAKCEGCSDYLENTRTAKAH
T1 sequence (A9J4K0 1-120 partner): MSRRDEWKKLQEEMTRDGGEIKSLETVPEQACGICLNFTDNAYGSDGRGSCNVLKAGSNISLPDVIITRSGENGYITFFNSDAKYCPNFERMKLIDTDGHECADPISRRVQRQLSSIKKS
T1 sequence (A9J4K6 1-71 partner): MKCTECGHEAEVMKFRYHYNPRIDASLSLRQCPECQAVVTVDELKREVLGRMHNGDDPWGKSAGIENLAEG
Kind of test: cryo-EM structure of the complex, […] Å. It is filed as binding. The note with it: active site of MASSα (αβγδ side); anaerobic; no alkane present; DTT modelled in hydrocarbon site; no glycyl radical activation described.

In test [1], “(1-methylalkyl)succinate synthase catalytic α-subunit (MASSα), protein product of masD (enzyme)” had a stoichiometry N of 2.
With `O=C(O)/C=C/C(=O)O` [fumarate], in test [2], the “cryo-EM structure of the complex, 2.8 Å” value is reported as “Density was observed for fumarate in a similar location as was observed for the fumarate”.

For orientation: stoichiometry N means the number of molecules, sites or subunits per partner or assembly.
